Source: article PMC5656003

Test system: O=[N+]([O-])c1ccc(O[C@@H]2O[C@H](CO)[C@@H](O)[C@H](O)[C@H]2O)cc1
Assay: pNP release, initial-rate kinetics
Assay type: biochemical, Bacteroides ovatus

Substance	Km [mM]	kcat [s⁻¹]	kcat/Km [M⁻¹ s⁻¹]
BACOVA_02738 (GH3) (Bacteroides ovatus)	2.53 ± 0.13	0.212 ± 0.004	83.8
BoGH3MLG (Bacteroides ovatus)	2.95 ± 0.14	59.5 ± 1.46	20200
